The data set “cryo-EM structure” deals with the molecule itself. Kind of data set: cryo-EM structure.
The target of data set [1] is N. gonorrhoeae LptD (1-801)-3C-His10 and LptE (1-159)-AVI complex, biotinylated (Neisseria gonorrhoeae) (UniProt Q5F651). Kind of data set: grating coupled interferometry.

This passage reports binding result and Kd results from doi:10.1101/2021.03.23.436624 (bioRxiv, 2021).

B1: Neisseria gonorrhoeae LptD (NgLptD) (natural protein, UniProt Q5F651 24-801, looked up)
chain: ADTVAAEEADGRVAEGGAQGASESAQASDLTLGSTCLFCSNESGSPERTEAAVQGSGEASVPEDYTRIVADRMEGQSKVKVRAEGSVIIERDGAVLNTDWADYDQSGDTVTVGDRFALQQDGTLIRGETLTYNLDQQTGEAHNVRMETEQGGRRLQSVSRTAEMLGEGRYKLTETQFNTCSAGDAGWYVKAASVEADRGKGIGVAKHAAFVFGGVPLFYTPWADFPLDGNRKSGLLVPSVSAGSDGVSLSVPYYFNLAPNFDATFAPGIIGERGATFDGQIRYLRPDYSGQTDLTWLPHDKKSGRNNRYQAKWQHRHDISDTLQAGVDFNQVSDSGYYRDFYGGEEIAGNVNLNRRVWLDYGGRAAGGSLNAGLSVQKYQTLANQSGYKDEPYAIMPRLSADWHKNAGRAQIGVSAQFTRFSHDGRQDGSRLVVYPGIKWDFSNSWGYVRPKLGLHATYYSLDSFGGKASRSVGRVLPVVNIDGGTTFERNTRLFGGGVVQTIEPRLFYNYIPAKSQNDLPNFDSSESSFGYGQLFRENLYYGNDRINAANSLSTAVQSRILDGATGEERFRAGIGQKFYFKDDAVMLDGSVGKNPRSRSDWVAFASGGIGGRFTLDSSIHYNQNDKRAEHYAVGAGYRPAPGKVLNARYKYGRNEKIYLQADGSYFYDKLSQLDLSAQWPLTRNLSAVVRYNYGFEAKKPIEMLAGAEYKSSCGCWGAGVYAQRYVTGENTYKNAVFFSLQLKDLSSVGRNPAGRMDVAVPGYIPAHSLSAGRNKRP
As for B1, in the data set “cryo-EM structure”, the binding result is listed as “binds”.

B2: Sybody 21 (Sb21) (VHH)
VHH: QVQLVESGGGLVQAGGSLRLSCAASGFPVKYEHMYWYRQAPGKEREWVAAINSAGNETHYADSVKGRFTISRDNAKNTVYLQMNSLKPEDTAVYYCNVKDIGWWAAYDYWGQGTQVTV
Molecule B2 came in with a Kd in data set [1] of 10 nM.
